Test results as given in paper PMC10798875 (The Journal of Cell Biology, 2024).

What was measured:
[1] = target: RanGTP (wild-type Ran loaded with GTP) (UniProt P62826 1-216); assay: MST
[2] = target: karyopherinα (Kapα; importinα1; KPNA2), full-length human (human, UniProt P52292 1-529); assay: MST

B1: cellular apoptosis susceptibility protein (CAS), human wild type (natural protein)
chain: MELSDANLQTLTEYLKKTLDPDPAIRRPAEKFLESVEGNQNYPLLLLTLLEKSQDNVIKVCASVTFKNYIKRNWRIVEDEPNKICEADRVAIKANIVHLMLSSPEQIQKQLSDAISIIGREDFPQKWPDLLTEMVNRFQSGDFHVINGVLRTAHSLFKRYRHEFKSNELWTEIKLVLDAFALPLTNLFKATIELCSTHANDASALRILFSSLILISKLFYSLNFQDLPEFFEDNMETWMNNFHTLLTLDNKLLQTDDEEEAGLLELLKSQICDNAALYAQKYDEEFQRYLPRFVTAIWNLLVTTGQEVKYDLLVSNAIQFLASVCERPHYKNLFEDQNTLTSICEKVIVPNMEFRAADEEAFEDNSEEYIRRDLEGSDIDTRRRAACDLVRGLCKFFEGPVTGIFSGYVNSMLQEYAKNPSVNWKHKDAAIYLVTSLASKAQTQKHGITQANELVNLTEFFVNHILPDLKSANVNEFPVLKADGIKYIMIFRNQVPKEHLLVSIPLLINHLQAESIVVHTYAAHALERLFTMRGPNNATLFTAAEIAPFVEILLTNLFKALTLPGSSENEYIMKAIMRSFSLLQEAIIPYIPTLITQLTQKLLAVSKNPSKPHFNHYMFEAICLSIRITCKANPAAVVNFEEALFLVFTEILQNDVQEFIPYVFQVMSLLLETHKNDIPSSYMALFPHLLQPVLWERTGNIPALVRLLQAFLERGSNTIASAAADKIPGLLGVFQKLIASKANDHQGFYLLNSIIEHMPPESVDQYRKQIFILLFQRLQNSKTTKFIKSFLVFINLYCIKYGALALQEIFDGIQPKMFGMVLEKIIIPEIQKVSGNVEKKICAVGITKLLTECPPMMDTEYTKLWTPLLQSLIGLFELPEDDTIPDEEHFIDIEDTPGYQTAFSQLAFAGKKEHDPVGQMVNNPKIHLAQSLHKLSTACPGRVPSMVSTSLNAEALQYLQGYLQAASVTLL
B1 showed a Kd [1] of 1400 ± 400 nM and a Kd [2] of 9.3 ± 2.9 nM.

B2: ∆40NCAS (CAS lacking the first 40 amino acids of the N-terminus) (domain or fragment)
chain: NYPLLLLTLLEKSQDNVIKVCASVTFKNYIKRNWRIVEDEPNKICEADRVAIKANIVHLMLSSPEQIQKQLSDAISIIGREDFPQKWPDLLTEMVNRFQSGDFHVINGVLRTAHSLFKRYRHEFKSNELWTEIKLVLDAFALPLTNLFKATIELCSTHANDASALRILFSSLILISKLFYSLNFQDLPEFFEDNMETWMNNFHTLLTLDNKLLQTDDEEEAGLLELLKSQICDNAALYAQKYDEEFQRYLPRFVTAIWNLLVTTGQEVKYDLLVSNAIQFLASVCERPHYKNLFEDQNTLTSICEKVIVPNMEFRAADEEAFEDNSEEYIRRDLEGSDIDTRRRAACDLVRGLCKFFEGPVTGIFSGYVNSMLQEYAKNPSVNWKHKDAAIYLVTSLASKAQTQKHGITQANELVNLTEFFVNHILPDLKSANVNEFPVLKADGIKYIMIFRNQVPKEHLLVSIPLLINHLQAESIVVHTYAAHALERLFTMRGPNNATLFTAAEIAPFVEILLTNLFKALTLPGSSENEYIMKAIMRSFSLLQEAIIPYIPTLITQLTQKLLAVSKNPSKPHFNHYMFEAICLSIRITCKANPAAVVNFEEALFLVFTEILQNDVQEFIPYVFQVMSLLLETHKNDIPSSYMALFPHLLQPVLWERTGNIPALVRLLQAFLERGSNTIASAAADKIPGLLGVFQKLIASKANDHQGFYLLNSIIEHMPPESVDQYRKQIFILLFQRLQNSKTTKFIKSFLVFINLYCIKYGALALQEIFDGIQPKMFGMVLEKIIIPEIQKVSGNVEKKICAVGITKLLTECPPMMDTEYTKLWTPLLQSLIGLFELPEDDTIPDEEHFIDIEDTPGYQTAFSQLAFAGKKEHDPVGQMVNNPKIHLAQSLHKLSTACPGRVPSMVSTSLNAEALQYLQGYLQAASVTLL
B2: binds [2].
